How the values were obtained:
Assay in all cases: cell-based or functional assay
[1] = biological target: T1, human BCMA on the cell surface (human, UniProt Q02223 1-184)
T1 sequence (looked up): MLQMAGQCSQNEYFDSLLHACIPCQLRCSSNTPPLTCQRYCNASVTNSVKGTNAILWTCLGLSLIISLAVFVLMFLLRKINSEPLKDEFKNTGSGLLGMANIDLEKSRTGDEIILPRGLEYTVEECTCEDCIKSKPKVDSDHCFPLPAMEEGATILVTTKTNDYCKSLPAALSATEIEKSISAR

[2] = biological target: T1, human BCMA on the cell surface; remark: listed apart in the source
[3] = biological target: T1, human BCMA on the cell surface; remark: listed apart in the source
[4] = biological target: T1, human BCMA on the cell surface; remark: listed apart in the source
[5] = biological target: T1, human BCMA on the cell surface; remark: listed apart in the source
[6] = biological target: T1, human BCMA on the cell surface; remark: listed apart in the source

| Binder | EC50 redirected T-cell killing of H929 cells (LDH release), Donor 1 [1] [nM] | EC50 redirected T-cell killing of H929 cells (LDH release), Donor 3 [1] [nM] | EC50 redirected T-cell killing of H929 cells (LDH release), Donor 4 [1] [nM] | EC50 redirected T-cell killing of H929 cells (LDH release), Donor 5 [1] [nM] | EC50 redirected T-cell killing of L363 cells (LDH release), Donor 1 [2] [nM] | EC50 redirected T-cell killing of L363 cells (LDH release), Donor 2 [2] [nM] | EC50 redirected T-cell killing of L363 cells (LDH release), Donor 3 [2] [nM] | EC50 redirected T-cell killing of L363 cells (LDH release), Donor 4 [2] [nM] | EC50 redirected T-cell killing of L363 cells (LDH release), Donor 5 [2] [nM] | EC50 redirected T-cell killing of RPMI-8226 cells (LDH release), Donor 2 [3] [nM] | EC50 redirected T-cell killing of RPMI-8226 cells (LDH release), Donor 3 [3] [nM] | EC50 redirected T-cell killing of RPMI-8226 cells (LDH release), Donor 4 [3] [nM] | EC50 redirected T-cell killing of RPMI-8226 cells (LDH release), Donor 5 [3] [nM] | Annexin-V positive JJN-3 cells (%) at 0.1 pM, Experiment 2 [4] [%] | Annexin-V positive JJN-3 cells (%) at 1 pM, Experiment 1 [4] [%] | Annexin-V positive JJN-3 cells (%) at 1 pM, Experiment 2 [4] [%] | Annexin-V positive JJN-3 cells (%) at 10 pM, Experiment 1 [4] [%] | Annexin-V positive JJN-3 cells (%) at 10 pM, Experiment 2 [4] [%] | Annexin-V positive JJN-3 cells (%) at 100 pM, Experiment 1 [4] [%] | Annexin-V positive JJN-3 cells (%) at 100 pM, Experiment 2 [4] [%] | also measured |
| --- | --- | --- | --- | --- | --- | --- | --- | --- | --- | --- | --- | --- | --- | --- | --- | --- | --- | --- | --- | --- | --- |
| 21-TCBcv (bispecific antibody, human IgG1, kappa, L234A L235A) heavy 1: not shown heavy 2: EVQLLESGGGLVQPGGSLRLSCAASGFTFSDNAMGWVRQAPGKGLEWVSAISGPGSSTYYADSVKGRFTISRDNSKNTLYLQMNSLRAEDTAVYYCAKVLGWFDYWGQGTLVTVSSASTKGPSVFPLAPSSKSTSGGTAALGCLVEDYFPEPVTVSWNSGALTSGVHTFPAVLQSSGLYSLSSVVTVPSSSLGTQTYICNVNHKPSNTKVDEKVEPKSCDKTHTCPPCPAPEAAGGPSVFLFPPKPKDTLMISRTPEVTCVVVDVSHEDPEVKFNWYVDGVEVHNAKTKPREEQYNSTYRVVSVLTVLHQDWLNGKEYKCKVSNKALGAPIEKTISKAKGQPREPQVCTLPPSRDELTKNQVSLSCAVKGFYPSDIAVEWESNGQPENNYKTTPPVLDSDGSFFLVSKLTVDKSRWQQGNVFSCSVMHEALHNHYTQKSLSLSPGK light 1: EIVLTQSPGTLSLSPGERATLSCRASQSVSEYYLAWYQQKPGQAPRLLIEHASTRATGIPDRFSGSGSGTDFTLTISRLEPEDFAVYYCQQYGYPPDFTFGQGTKVEIKRTVAAPSVFIFPPSDRKLKSGTASVVCLLNNFYPREAKVQWKVDNALQSGNSQESVTEQDSKDSTYSLSSTLTLSKADYEKHKVYACEVTHQGLSSPVTKSFNRGEC light 2: EVQLLESGGGLVQPGGSLRLSCAASGFTFSTYAMNWVRQAPGKGLEWVSRIRSKYNNYATYYADSVKGRFTISRDDSKNTLYLQMNSLRAEDTAVYYCVRHGNFGNSYVSWFAYWGQGTLVTVSSASVAAPSVFIFPPSDEQLKSGTASVVCLLNNFYPREAKVQWKVDNALQSGNSQESVTEQDSKDSTYSLSSTLTLSKADYEKHKVYACEVTHQGLSSPVTKSFNRGEC | 0.0971 | 0.0421 | 0.0539 | 0.0387 | 0.0836 | 0.0384 | 0.0189 | 0.0191 | 0.0464 | 0.0413 | 0.0088 | 0.004 | 0.0084 | – | – | – | – | – | – | – | – |
| 42-TCBcv (bispecific antibody, human IgG1, kappa, L234A L235A) heavy 1: not shown heavy 2: EVQLLESGGGLVQPGGSLRLSCAASGFTFSDNAMGWVRQAPGKGLEWVSAISGPGSSTYYADSVKGRFTISRDNSKNTLYLQMNSLRAEDTAVYYCAKVLGWFDYWGQGTLVTVSSASTKGPSVFPLAPSSKSTSGGTAALGCLVEDYFPEPVTVSWNSGALTSGVHTFPAVLQSSGLYSLSSVVTVPSSSLGTQTYICNVNHKPSNTKVDEKVEPKSCDKTHTCPPCPAPEAAGGPSVFLFPPKPKDTLMISRTPEVTCVVVDVSHEDPEVKFNWYVDGVEVHNAKTKPREEQYNSTYRVVSVLTVLHQDWLNGKEYKCKVSNKALGAPIEKTISKAKGQPREPQVCTLPPSRDELTKNQVSLSCAVKGFYPSDIAVEWESNGQPENNYKTTPPVLDSDGSFFLVSKLTVDKSRWQQGNVFSCSVMHEALHNHYTQKSLSLSPGK light 1: EIVLTQSPGTLSLSPGERATLSCRASQSVSDEYLSWYQQKPGQAPRLLIHSASTRATGIPDRFSGSGSGTDFTLAISRLEPEDFAVYYCQQYGYPPDFTFGQGTKVEIKRTVAAPSVFIFPPSDRKLKSGTASVVCLLNNFYPREAKVQWKVDNALQSGNSQESVTEQDSKDSTYSLSSTLTLSKADYEKHKVYACEVTHQGLSSPVTKSFNRGEC light 2: EVQLLESGGGLVQPGGSLRLSCAASGFTFSTYAMNWVRQAPGKGLEWVSRIRSKYNNYATYYADSVKGRFTISRDDSKNTLYLQMNSLRAEDTAVYYCVRHGNFGNSYVSWFAYWGQGTLVTVSSASVAAPSVFIFPPSDEQLKSGTASVVCLLNNFYPREAKVQWKVDNALQSGNSQESVTEQDSKDSTYSLSSTLTLSKADYEKHKVYACEVTHQGLSSPVTKSFNRGEC | 0.0097 | 0.0117 | 0.0072 | 0.0068 | 0.0155 | 0.0167 | 0.0052 | 0.0022 | 0.0106 | 0.383 | 0.0187 | 0.0035 | 0.0015 | 12.8 | 11.9 | 13.5 | 12.3 | 13.6 | 8.62 | 14.4 | Annexin-V positive JJN-3 cells (%) at 1000 pM, Experiment 1 [4]: 16.8%; Annexin-V positive JJN-3 cells (%) at 1000 pM, Experiment 2 [4]: 21.7%; Annexin-V positive JJN-3 cells (%) at 10000 pM, Experiment 1 [4]: 24.8%; Annexin-V positive JJN-3 cells (%) at 10000 pM, Experiment 2 [4]: 26.9%; Lysis of JJN-3 cells (%) at 0.1 pM, Experiment 2 [5]: 17.6%; Lysis of JJN-3 cells (%) at 1 pM, Experiment 1 [5]: 40.3%; Lysis of JJN-3 cells (%) at 1 pM, Experiment 2 [5]: 34.9%; Lysis of JJN-3 cells (%) at 10 pM, Experiment 1 [5]: 39%; Lysis of JJN-3 cells (%) at 10 pM, Experiment 2 [5]: 39.4%; Lysis of JJN-3 cells (%) at 100 pM, Experiment 1 [5]: 41.9%; Lysis of JJN-3 cells (%) at 100 pM, Experiment 2 [5]: 55.3%; Lysis of JJN-3 cells (%) at 1000 pM, Experiment 1 [5]: 84%; Lysis of JJN-3 cells (%) at 1000 pM, Experiment 2 [5]: 81.1%; Lysis of JJN-3 cells (%) at 10000 pM, Experiment 1 [5]: 92.9%; Lysis of JJN-3 cells (%) at 10000 pM, Experiment 2 [5]: 90.4%; Annexin-V positive patient bone marrow myeloma plasma cells (%) at 10 pM [6]: 19.6%; Annexin-V positive patient bone marrow myeloma plasma cells (%) at 100 pM [6]: 10.5%; Annexin-V positive patient bone marrow myeloma plasma cells (%) at 1000 pM [6]: 30%; Annexin-V positive patient bone marrow myeloma plasma cells (%) at 10000 pM [6]: 39.9%; Annexin-V positive patient bone marrow myeloma plasma cells (%) at 30000 pM [6]: 52.5% |
| 22-TCBcv (bispecific antibody, human IgG1, kappa, L234A L235A) heavy 1: not shown heavy 2: EVQLLESGGGLVQPGGSLRLSCAASGFTFSDNAMGWVRQAPGKGLEWVSAISGPGSSTYYADSVKGRFTISRDNSKNTLYLQMNSLRAEDTAVYYCAKVLGWFDYWGQGTLVTVSSASTKGPSVFPLAPSSKSTSGGTAALGCLVEDYFPEPVTVSWNSGALTSGVHTFPAVLQSSGLYSLSSVVTVPSSSLGTQTYICNVNHKPSNTKVDEKVEPKSCDKTHTCPPCPAPEAAGGPSVFLFPPKPKDTLMISRTPEVTCVVVDVSHEDPEVKFNWYVDGVEVHNAKTKPREEQYNSTYRVVSVLTVLHQDWLNGKEYKCKVSNKALGAPIEKTISKAKGQPREPQVCTLPPSRDELTKNQVSLSCAVKGFYPSDIAVEWESNGQPENNYKTTPPVLDSDGSFFLVSKLTVDKSRWQQGNVFSCSVMHEALHNHYTQKSLSLSPGK light 1: EIVLTQSPGTLSLSPGERATLSCRASQSVSSYYLAWYQQKPGQAPRLLISGAGSRATGIPDRFSGSGSGTDFTLTISRLEPEDFAVYYCQQYGYPPDFTFGQGTKVEIKRTVAAPSVFIFPPSDRKLKSGTASVVCLLNNFYPREAKVQWKVDNALQSGNSQESVTEQDSKDSTYSLSSTLTLSKADYEKHKVYACEVTHQGLSSPVTKSFNRGEC light 2: EVQLLESGGGLVQPGGSLRLSCAASGFTFSTYAMNWVRQAPGKGLEWVSRIRSKYNNYATYYADSVKGRFTISRDDSKNTLYLQMNSLRAEDTAVYYCVRHGNFGNSYVSWFAYWGQGTLVTVSSASVAAPSVFIFPPSDEQLKSGTASVVCLLNNFYPREAKVQWKVDNALQSGNSQESVTEQDSKDSTYSLSSTLTLSKADYEKHKVYACEVTHQGLSSPVTKSFNRGEC | 0.0532 | 0.0422 | 0.0232 | 0.0289 | 0.0975 | 0.0277 | 0.0165 | 0.0146 | 0.056 | 0.0476 | 0.0076 | 0.0032 | 0.0055 | 14.8 | 9.3 | 15 | 13.3 | 15.9 | 12.5 | 18.4 | Annexin-V positive JJN-3 cells (%) at 1000 pM, Experiment 1 [4]: 26.1%; Annexin-V positive JJN-3 cells (%) at 1000 pM, Experiment 2 [4]: 27%; Annexin-V positive JJN-3 cells (%) at 10000 pM, Experiment 1 [4]: 22.9%; Annexin-V positive JJN-3 cells (%) at 10000 pM, Experiment 2 [4]: 29.7%; Lysis of JJN-3 cells (%) at 0.1 pM, Experiment 2 [5]: 36.5%; Lysis of JJN-3 cells (%) at 1 pM, Experiment 1 [5]: 4.29%; Lysis of JJN-3 cells (%) at 1 pM, Experiment 2 [5]: 24.4%; Lysis of JJN-3 cells (%) at 10 pM, Experiment 1 [5]: 73.6%; Lysis of JJN-3 cells (%) at 10 pM, Experiment 2 [5]: 41.7%; Lysis of JJN-3 cells (%) at 100 pM, Experiment 1 [5]: 56.3%; Lysis of JJN-3 cells (%) at 100 pM, Experiment 2 [5]: 53%; Lysis of JJN-3 cells (%) at 1000 pM, Experiment 1 [5]: 90.5%; Lysis of JJN-3 cells (%) at 1000 pM, Experiment 2 [5]: 94.1%; Lysis of JJN-3 cells (%) at 10000 pM, Experiment 1 [5]: 88%; Lysis of JJN-3 cells (%) at 10000 pM, Experiment 2 [5]: 91.2%; Annexin-V positive patient bone marrow myeloma plasma cells (%) at 10 pM [6]: 14.2%; Annexin-V positive patient bone marrow myeloma plasma cells (%) at 100 pM [6]: 14.8%; Annexin-V positive patient bone marrow myeloma plasma cells (%) at 1000 pM [6]: 31%; Annexin-V positive patient bone marrow myeloma plasma cells (%) at 10000 pM [6]: 51.7%; Annexin-V positive patient bone marrow myeloma plasma cells (%) at 30000 pM [6]: 55.7% |

From patent US20230322957A1 (ENGMAB SARL, published 2023)
